Experiments:
[1] = biological target: T1, GLP-1-(7-36)-NH2, P01275
T1 chain: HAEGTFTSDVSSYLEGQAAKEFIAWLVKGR

[2] = biological target: T2, [Ala^2,Nle^14,Arg^30]-Ex-3-(1-30)-NH2
T2 chain: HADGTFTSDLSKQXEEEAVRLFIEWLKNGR

B1: dipeptidyl peptidase IV (protein)
chain: MKTPWKVLLGLLGAAALVTIITVPVVLLNKGTDDATADSRKTYTLTDYLKNTYRLKLYSLRWISDHEYLYKQENNILVFNAEYGNSSVFLENSTFDEFGHSINDYSISPDGQFILLEYNYVKQWRHSYTASYDIYDLNKRQLITEERIPNNTQWVTWSPVGHKLAYVWNNDIYVKIEPNLPSYRITWTGKEDIIYNGITDWVYEEEVFSAYSALWWSPNGTFLAYAQFNDTEVPLIEYSFYSDESLQYPKTVRVPYPKAGAVNPTVKFFVVNTDSLSSVTNATSIQITAPASMLIGDHYLCDVTWATQERISLQWLRRIQNYSVMDICDYDESSGRWNCLVARQHIEMSTTGWVGRFRPSEPHFTLDGNSFYKIISNEEGYRHICYFQIDKKDCTFITKGTWEVIGIEALTSDYLYYISNEYKGMPGGRNLYKIQLSDYTKVTCLSCELNPERCQYYSVSFSKEAKYYQLRCSGPGLPLYTLHSSVNDKGLRVLEDNSALDKMLQNVQMPSKKLDFIILNETKFWYQMILPPHFDKSKKYPLLLDVYAGPCSQKADTVFRLNWATYLASTENIIVASFDGRGSGYQGDKIMHAINRRLGTFEVEDQIEAARQFSKMGFVDNKRIAIWGWSYGGYVTSMVLGSGSGVFKCGIAVAPVSRWEYYDSVYTERYMGLPTPEDNLDHYRNSTVMSRAENFKQVEYLLIHGTADDNVHFQQSAQISKALVDVGVDFQAMWYTDEDHGIASSTAHQHIYTHMSHFIKQCFSLP
[1]
  Substrate for DDP-IV: 50% proteolysis
[2]
  Substrate for DDP-IV: no proteolysis

From patent US6767887
